Reference: article PMC5427286, “Structural model of dodecameric heat-shock protein Hsp21: Flexible N-terminal arms interact with client proteins while C-terminal tails maintain the dodecamer and chaperone activity” (The Journal of Biological Chemistry, 2017)

Tests used:
[1] = target: the molecule itself; test: cross-linking; BS3 at protein/cross-linker ratios of 1:10 and 1:60, protein 25-250 uM, read by denaturing SDS-PAGE
[2] = target: the molecule itself; test: SAXS; batch SAXS at 2.5, 5 and 10 mg/ml; ensemble optimization method (EOM) with pools of dimers, hexamers and dodecamers

B1: Hsp21, the 21-kDa chloroplast-localized small heat-shock protein of Arabidopsis thaliana (natural protein)
chain: not shown
notes: N-terminal peptide printed as 1MQDQR5, IXVXI motif 179IDVQI183, rigid bodies of residues 83-184. numbers count on: the mature protein; Dodecamer of two trimer-of-dimer discs; The deposited model lacks part of the NTR; also called Hsp21 WT; Hsp21WT; source: E. coli ER2566, purified (ammonium sulfate precipitation, SEC); copies: 12
stoichiometry N [1]: 12 | stoichiometry N [2]: 6
